Reference: article PMC3086336
Substitutions are numbered along the chain they refer to. Names and notes keep the numbering of the source. One block for each binder: values may come before it.

Tests used:
Assay in all cases: fluorescence polarisation
[1] = biological target: unphosphorylated form of the RNAPII-CTD (peptide)
[2] = biological target: pSer5 RNAPII CTD di-heptad repeat peptide
[3] = biological target: pSer2 RNAPII CTD di-heptad repeat peptide
[4] = biological target: pSer(2,5) RNAPII CTD di-heptad repeat peptide
[5] = biological target: pTyr1 RNAPII CTD di-heptad repeat peptide

Kd [1]: > 1 mM
Kd [2]: 245 µM
Kd [3]: 197 µM
Kd [4]: 23 µM
B1: Spt6(1247–1451) (domain or fragment)
chain: AKRTHRVINHPYYFPFNGRQAEDYLRSKERGEFVIRQSSRGDDHLVITWKLDKDLFQHIDIQELEKENPLALGKVLIVDNQKYNDLDQIIVEYLQNKVRLLNEMTSSEKFKSGTKKDVVKFIEDYSRVNPNKSVYYFSLNHDNPGWFYLMFKINANSKLYTWNVKLTNTGYFLVNYNYPSVIQLCNGFKTLLKSNSSKNRMNNYR

fold decrease of binding against WT Spt6(1247–1451) [5]: 2.4 fold
fold decrease of binding against WT Spt6(1247–1451) [2]: 1.4 fold
fold decrease of binding against WT Spt6(1247–1451) [3]: 1.2 fold
B2: R1282A/S1284A Spt6(1247–1451) (domain or fragment)
chain: B1 chain with R36A, S38A
